Experimental findings from article PMC8041713, “Identification and biochemical characterisation of tyrosine aminotransferase from Anthoceros agrestis unveils the conceivable entry point into rosmarinic acid biosynthesis in hornworts” (Planta, 2021) are described below.

Common to all, as to assay: purified protein
Substrate in series [1]: O=C(O)CC(=O)C(=O)O
The following applies: co-substrate 6 mM L-tyrosine, 0.48 mM PLP, 1 M Tris/HCl pH 8.5, 40 °C.

Substrate in series [2]: CC(=O)C(=O)O
In kind it is biochemical, Anthoceros agrestis. The settings on record: co-substrate 6 mM L-tyrosine, 0.48 mM PLP, 1 M Tris/HCl pH 8.5, 40 °C.

Substrate in series [3]: N[C@@H](Cc1ccc(O)cc1)C(=O)O
The series is classed as biochemical, Anthoceros agrestis. The following applies: co-substrate 80 mM 2-oxoglutarate, 0.48 mM PLP, 1 M Tris/HCl pH 8.5, 40 °C.

Substrate in series [4]: N[C@@H](Cc1ccccc1)C(=O)O
The series is classed as biochemical, Anthoceros agrestis. The settings on record: co-substrate 80 mM 2-oxoglutarate, 0.48 mM PLP, 1 M Tris/HCl pH 8.5, 40 °C.

Substrate in series [5]: O=C(O)C(=O)Cc1ccccc1
The series is classed as biochemical, Anthoceros agrestis. The settings on record: co-substrate 6 mM L-tyrosine, 0.48 mM PLP, 1 M Tris/HCl pH 8.5, 40 °C.

Substrate in series [6]: O=C(O)CCC(=O)C(=O)O
The series is classed as biochemical, Anthoceros agrestis. The settings on record: co-substrate 6 mM L-tyrosine, 0.48 mM PLP, 1 M Tris/HCl pH 8.5, 40 °C.

B1: AaTAT (tyrosine aminotransferase) (Anthoceros agrestis) (protein)
chain: MATVLNQKRQAEILHGNGVEGGGGGLAVSKIMSKAVVGKPPVARKPAGKTVDKEWNVRPRIAALESRNPIRDIVETKLKPNPNLGKKPISLAQGDPTVYGHLKVPESACAALAEVATSYKYNGYAHSAGILECRSAVADFHSEHLPFELTPEDVGIVVGCSQAIEFSIACLAAEGSNMLVPRPGFPIYDTFCRYYGVEVRYYDLLPERGWEVDLEQVAELADDDTAAMILCNPSNPCGTSFSYQHLSQIAGLCEKLKLPIISDEIYEHMLFGEKKFTPMATFSLQVPVLTVGGISKRWLAPGWRLGWILICDPCCILEKSGVVEALKRIMQMTIGTSVLVQAAVPAMLQNTTPEFYKQTMKTLEDGCDCCYRRIQGIVGLDVPTKPDGAMYMMAKVDPSAFKDIPDDTVFAEKLVKEENIVVLPGSAFGIHNWLRLVFATPVYMLEEAFDRIEAFCLRHASVQN
notes: full length, 464 residues (1395 bp), N-terminal 6xHis tag kept, pET-15b, E. coli SoluBL21, Ni-NTA
What is called Km is the substrate concentration at which the rate is half of its maximum. The Vmax is the top rate of the reaction or transport when substrate is in excess. Broadly, the kcat is the number of substrate molecules converted per active site and unit of time at saturation. Usually kcat/Km stands for the turnover number divided by the Michaelis constant. As to B1, the Km in “purified protein [1]” was found to be 4.05 ± 1.44 mM; in the series “purified protein [2]”, 81.14 ± 15.12 mM; in “purified protein [3]”, 0.53 ± 0.05 mM; in the series “purified protein [4]”, 70.47 ± 4.18 mM; in the series “purified protein [5]” it was 7.92 ± 2.35 mM; in “purified protein [6]”, 15.13 ± 1.34 mM. In addition, the Vmax in “purified protein [1]” is 0.756 µmol/min/mg; in “purified protein [2]” it was 13.4 µmol/min/mg; in the series “purified protein [3]”, 55.3 µmol/min/mg; in “purified protein [4]” it was 134 µmol/min/mg; in “purified protein [5]”, 31.8 µmol/min/mg; in the series “purified protein [6]” it was 82.6 µmol/min/mg. The kcat stood at 0.7 s⁻¹ in the series “purified protein [1]”; 11.9 ± 1.6 s⁻¹ in the series “purified protein [2]”; 48.9 ± 7.6 s⁻¹ in the series “purified protein [3]”; 119 ± 26.9 s⁻¹ in “purified protein [4]”; 28.2 ± 6.2 s⁻¹ in “purified protein [5]”; 73.1 ± 5.2 s⁻¹ in “purified protein [6]”. Also, the kcat/Km was 200 M⁻¹ s⁻¹ in the series “purified protein [1]”; 150 ± 20 M⁻¹ s⁻¹ in “purified protein [2]”; 91700 ± 9800 M⁻¹ s⁻¹ in the series “purified protein [3]”; 1700 ± 400 M⁻¹ s⁻¹ in “purified protein [4]”; 3900 ± 1400 M⁻¹ s⁻¹ in the series “purified protein [5]”; 4900 ± 300 M⁻¹ s⁻¹ in “purified protein [6]”.
